According to the supplement of paper PMC12338614:
± gives the uncertainty stated by the source.

B1: library; numbered along this chain (parent)
chain: MEVVDPQQLGMFTEGELMSVGMDTFIHRIDSTEVIYQPRRKRAKLIGKYLMGDLLGEGSYGKVKEVLDSETLCRRAVKILKKKKLRRIPNGEANVKKEIQLLRRLRHKNVIQLVDVLYNEEKQKMYMVMEYCVCGMQEMLDSVPEKRFPVCQAHGYFCQLIDGLEYLHSQGIVHKDIKPGNLLLTTGGTLKISDLGVAEALHPFAADDTCRTSQGSPAFQPPEIANGLDTFSGFKVDIWSAGVTLYNITTGLYPFEGDNIYKLFENIGKGSYAIPGDCGPPLSDLLKGMLEYEPAKRFSIRQIRQHSWFRKKHPPAEAPVPIPPSPDTKDRWRSMTVVPYLEDLHGADEDEDLFDIEDDIIYTQDFTVPGQVPEEEASHNGQRRGLPKAVCMNGTEAAQLSTKSRAEGRAPNPARKACSASSKIRRLSACKQQ

Variants of: B1
Experiment: STK11 functional score (HeLa growth suppression), rescaled enrichment; synonymous median = 1, nonsense median = 0 (normalised score)
Details: with HeLa; variant type: missense
Procedure, shortened: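 The values are functional scores: wild-type-corrected log ratios of post- versus pre-selection abundance, rescaled to synonymous and nonsense medians, merged over codons and replicate transfections, and carrying bootstrapped error. They derive from codon-randomised (POPCode), codon-optimised STK11 libraries that Bxb1 integrated at an AAVS1 landing pad in HeLa, with three transfections for each of three regions. Sequencing of tiled gDNA amplicons ran on NextSeq, at ~2 million reads per tile.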

Point of comparison: T395I, STK11 functional score 0.971 ± 0.23. Against it:
- A241G — within error, 0.802 ± 0.13
- V372Q — higher, 1.49 ± 0.16
- V372G — within error, 1.09 ± 0.47
- T395K — within error, 0.547 ± 0.29
- S271M — higher, 1.5 ± 0.21
- S271R — within error, 1.04 ± 0.27
- G58E — within error, 1.04 ± 0.23
- D359L — higher, 1.53 ± 0.17
- D359H — within error, 1.21 ± 0.39
- D359I — within error, 0.856 ± 0.075
- T250V — within error, 1.24 ± 0.14
- T250P — lower, -0.224 ± 0.1
- T250Y — within error, 1.31 ± 0.65
- D365P — higher, 1.56 ± 0.18
- L164C — within error, 1.21 ± 0.15
- L164G — lower, -0.142 ± 0.098
- V116R — within error, 0.888 ± 0.12
- V116L — within error, 1.14 ± 0.23
- V116P — within error, 0.975 ± 0.1
- L183Y — higher, 1.57 ± 0.1
- A316P — within error, 0.694 ± 0.36
- K108S — within error, 0.866 ± 0.22
- K108A — within error, 1.25 ± 0.12
- G394V — within error, 1.29 ± 0.18
- G394S — within error, 1.46 ± 0.33
- P221D — lower, 0.00575 ± 0.14
- T402Y — within error, 1.43 ± 0.37
- T402H — within error, 0.157 ± 0.63
- T402P — within error, 1.54 ± 0.46
- P294S — within error, 0.67 ± 0.14
- R415Y — higher, 1.49 ± 0.16
- R415T — within error, 0.914 ± 0.57
- P369G — higher, 1.56 ± 0.26
- P369V — within error, 1.21 ± 0.15
- I161W — lower, -0.296 ± 0.057
- I274F — within error, 1.13 ± 0.43
- M136W — lower, -0.224 ± 0.078
- F231S — within error, 0.515 ± 0.38
- L9V — within error, 0.506 ± 0.58
- L9W — higher, 1.49 ± 0.16
- S428E — higher, 1.63 ± 0.13
- S428N — within error, 0.872 ± 0.25
- L252I — higher, 1.54 ± 0.12
- G276F — within error, 0.884 ± 0.19
- V4W — within error, 1.22 ± 0.089
- L182C — within error, 1.17 ± 0.16
- L182R — lower, 0.129 ± 0.17
- L182I — higher, 1.56 ± 0.16
- R383F — within error, 1.2 ± 0.17
- R383C — within error, 1.22 ± 0.12
- R104D — within error, 0.685 ± 0.19
- L102W — within error, 1.2 ± 0.079
- K178S — lower, 0.586 ± 0.12
- E57A — within error, 1.15 ± 0.13
- Y246H — lower, -0.136 ± 0.1
- Y246M — within error, 1.29 ± 0.17
- L67V — within error, 0.884 ± 0.11
- L67W — within error, 0.675 ± 0.08
- G370V — within error, 0.706 ± 0.17
- G370D — within error, 1.24 ± 0.39
- G370E — within error, 1.43 ± 0.25
- G180R — within error, 0.948 ± 0.5
- G346I — within error, 1.18 ± 0.33
- S19G — higher, 1.64 ± 0.2
- L72A — within error, 0.81 ± 0.3
- A397W — within error, 0.847 ± 0.43
- D355V — within error, 1.14 ± 0.18
- N393L — within error, 1.16 ± 0.46
- Y126P — lower, -0.144 ± 0.083
- V3W — within error, 0.953 ± 0.5
- Q364Y — higher, 1.53 ± 0.17
- Q364D — within error, 0.845 ± 0.44
- K287D — within error, 1.27 ± 0.18
- K287T — within error, 1.25 ± 0.2
- M127P — within error, 0.82 ± 0.4
- A417P — within error, 1.2 ± 0.39
- A417C — within error, 1.24 ± 0.52
- D330R — higher, 1.47 ± 0.25
- E349R — higher, 1.37 ± 0.15
- K416S — higher, 1.55 ± 0.2
- K416G — higher, 1.55 ± 0.31
- R39V — within error, 1.22 ± 0.14
- R39K — within error, 0.866 ± 0.75
- R39E — lower, -0.363 ± 0.48
- P38N — lower, 0.557 ± 0.099
- P38T — within error, 0.9 ± 0.23
- T32L — within error, 1.16 ± 0.37
- R333F — within error, 0.85 ± 0.49
- I322Q — lower, 0.336 ± 0.09
- V320F — within error, 1.07 ± 0.37
- V320W — within error, 0.717 ± 0.091
- E98Y — lower, 0.182 ± 0.18
- P222M — lower, 0.595 ± 0.11
- D229Y — lower, 0.508 ± 0.12
- K122M — within error, 1.25 ± 0.6
- A205S — within error, 1.18 ± 0.34
- N247T — within error, 0.951 ± 0.094
- N247D — within error, 0.827 ± 0.46
- A153I — lower, 0.28 ± 0.27
- E256Q — within error, 1.47 ± 0.56
- P144R — within error, 0.996 ± 0.22
- P144Q — within error, 1.25 ± 0.34
- P144A — within error, 1.08 ± 0.21
- K146V — lower, 0.152 ± 0.098
- A429P — within error, 0.559 ± 0.56
- D277L — within error, 0.92 ± 0.12
- E375Q — within error, 1.12 ± 0.61
- E375G — within error, 1.49 ± 0.32
- E375F — within error, 1.29 ± 0.29
- I248T — within error, 1.15 ± 0.2
- E396M — within error, 1.47 ± 0.39
- F354H — within error, 1.34 ± 0.28
- L228A — higher, 1.66 ± 0.14
- I99P — lower, 0.0871 ± 0.35
- C132M — within error, 1.35 ± 0.73
- C132N — within error, 1.23 ± 0.38
- V150R — within error, 1.17 ± 0.25
- V150S — lower, 0.347 ± 0.13
- V150G — lower, 0.594 ± 0.14
- P315G — within error, 1.29 ± 0.39
- A200C — within error, 1.13 ± 0.096
- Q382A — within error, 1.38 ± 0.47
- M22H — higher, 1.67 ± 0.21
- S299V — within error, 0.978 ± 0.26
- H306Q — lower, 0.514 ± 0.21
- R75A — higher, 1.68 ± 0.19
- K82A — higher, 1.43 ± 0.15
- K82L — higher, 1.49 ± 0.16
- K82Q — higher, 1.7 ± 0.18
- K96G — within error, 1.31 ± 0.19
- P411F — within error, 0.906 ± 0.61
- P411M — higher, 1.58 ± 0.23
- S59L — higher, 1.56 ± 0.32
- S59C — within error, 0.952 ± 0.27
- S59T — within error, 1.32 ± 0.64
- L201N — within error, 1.19 ± 0.12
- N226E — lower, 0.0384 ± 0.15
- N226M — lower, 0.459 ± 0.1
- I111V — within error, 0.948 ± 0.079
- I111L — lower, 0.392 ± 0.14
- Y118R — within error, 1.04 ± 0.18
- Y118T — higher, 1.61 ± 0.14
- Y118F — lower, 0.519 ± 0.077
- L85W — within error, 1.16 ± 0.086
- L85P — higher, 1.41 ± 0.18
- T13W — lower, 0.14 ± 0.079
- T13I — within error, 1.01 ± 0.37
- T13A — higher, 1.5 ± 0.23
- G215M — lower, 0.509 ± 0.12
- E70L — within error, 1.03 ± 0.32
- H313N — lower, 0.48 ± 0.26
- H313E — higher, 1.43 ± 0.16
- Q37I — higher, 1.65 ± 0.17
- E165K — within error, 0.973 ± 0.53
- E165L — lower, 0.448 ± 0.22
- E165M — lower, 0.0982 ± 0.39
- Y272F — within error, 1.27 ± 0.13
- V133Y — within error, 1.55 ± 0.39
- V133R — lower, 0.519 ± 0.12
- V133I — within error, 1.24 ± 0.26
- N119D — within error, 0.736 ± 0.88
- N119M — lower, 0.408 ± 0.074
- D327C — within error, 1.27 ± 0.32
- S378R — within error, 1.16 ± 0.39
- H168G — lower, 0.533 ± 0.13
- E374D — the same, 0.971 ± 0.47
